Measured values: the supplement of paper PMC10567573

B1: CHIT1 (parent)
chain: CSWKGATKQRIQDQKVPYIFRDNQ

Variants of: B1
Assay: protein stability index of a GFP-peptide fusion (GPS, HEK-293T) (PSI 1-6); higher = more stable
Conditions: c terminus: a fixed tail appended
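Note: lentivirally expressed fusions sorted by FACS into six bins by GFP to DsRed ratio, PSI derived from sequencing read proportions per bin multiplied by bin number.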

Protein stability index: each site, then its substitutions
P17: W 2.04; K 2.8; H 2.4; Q 1.98; C 2.75; T 2.57; G 2.45; R 2.67; M 1.37; D 3.36; I 1.61; Y 1.75; F 1.54; S 1.81; A 2.64; L 1.33; N 2.51
R21: M 2.44; A 3.06; S 3.12; Q 2.64; Y 2.72; H 2.38; I 2.18; E 3.68; D 3.49; K 2.83; T 2.99; L 2.9; F 2.47; V 1.96; G 2.98; W 1.87; C 2.11; P 3.15; N 3.09
K15: N 2.75; M 2.28; F 1.54; S 2.29; C 2.99; L 2.2; G 2.15; Y 3.73; R 2.31; H 2.26; T 2.48; D 3.09; P 3.22; Q 2.19; V 1.39; I 2.44
I19: Y 1.95; M 3.54; T 2.77; R 3.28; C 2.35; L 2.3; D 3.88; A 3.19; P 1.87; H 3.02; W 2.06; N 3.17; E 3.31; F 2.08; K 3.67; V 2.88
Y18: A 2.88; C 2.7; W 2.19; D 3.5; R 3.08; V 3.46; M 2.41; K 3.34; G 4.15; F 2.12; P 2.58; N 3.4; I 2.23; H 2.74; T 3.02
Q14: M 2.21; W 1.99; I 2.35; S 2.37; T 2.88; R 2.34; P 2.98; H 3.06; G 2.79; N 2.91; K 1.87; Y 1.92; L 2.04; V 1.94
V16: L 2.55; M 2.28; K 3.11; Y 1.95; E 2.85; T 2.37; R 2.31; I 2.5; F 2.32; D 2.86; N 2.82; C 3.13; H 2.27; P 3.31; S 2.11; G 2.73; W 2.04; Q 3.07
N23: R 2.82; Q 2.6; P 2.38; V 1.67; A 2.76; F 2.04; Y 2.11; D 3.53; S 2.2; C 1.91; L 1.89; H 1.99; I 2.56; E 2.54; W 1.62; K 3.05
D22: Q 2.33; S 2.42; R 2.66; T 2.18; G 3.03; W 1.6; M 2.43; H 1.72; E 2.44; P 2.22; L 2.06; C 1.66; K 2.42; A 2.57; F 1.35; I 1.57; N 2.42; V 1.83
Q24: G 2.18; K 3.16; D 3.34; P 2.48; C 3.02; I 2.85; S 2.82; A 2.29; W 1.3; E 4.3; L 2.31; M 1.92; Y 1.61; T 2.75; N 2.45; V 2.16; H 2.06; F 2.01
